According to PMC3137622:
Where a chain is given by its changes, count along the chain named. Names may count otherwise. Each block holds one binder with its values, some of them ahead of it.

Experiments:
[1] = molecular target: monoclonal antibody 7C11 (anti-Bla g 2); assay: ELISA dose-response; settings: chain shown with the change, read off a plot
[2] = molecular target: monoclonal antibody 7C11 (anti-Bla g 2); assay: competition ELISA; settings: chain shown with the change, solid phase rBla g 2-N93Q, read off a plot
[3] = molecular target: monoclonal antibody 4C3 (anti-Bla g 2); assay: ELISA dose-response; settings: chain shown with the change, read off a plot
[4] = molecular target: monoclonal antibody 4C3 (anti-Bla g 2); assay: competition ELISA; settings: chain shown with the change, solid phase rBla g 2-N93Q, read off a plot
[5] = allergen concentration 100 ng/ml, parent: est. 1.8
[6] = competitor concentration 0.1 µg/ml, parent: est. 47
[7] = competitor concentration 1 µg/ml, parent: est. 5
[8] = allergen concentration 100 ng/ml, parent: est. 1.3
[9] = competitor concentration 0.1 µg/ml
[10] = competitor concentration 1 µg/ml
[11] = allergen concentration 100 ng/ml, parent: est. 1.5
[12] = competitor concentration 0.1 µg/ml, parent: est. 82
[13] = competitor concentration 1 µg/ml, parent: est. 32
[14] = competitor concentration 10 µg/ml, parent: est. 1
[15] = competitor concentration 100 µg/ml, parent: est. 0
[16] = allergen concentration about 400 ng/ml (highest point of the series), parent: est. 1.9
[17] = competitor concentration 10 µg/ml, parent: est. 5
[18] = competitor concentration 100 µg/ml, parent: est. 1
[19] = allergen concentration 100 ng/ml, parent: est. 0.48
[20] = allergen concentration 100 ng/ml (read on the curve line), parent: est. 1.8

monoclonal antibody 4C3 (anti-Bla g 2), sequence (chain, as listed by the source, chain 1 of 2): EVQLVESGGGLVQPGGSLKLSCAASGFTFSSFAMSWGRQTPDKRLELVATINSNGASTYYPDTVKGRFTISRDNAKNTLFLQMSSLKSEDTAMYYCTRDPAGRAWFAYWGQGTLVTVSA
monoclonal antibody 4C3 (anti-Bla g 2), sequence (chain, as listed by the source, chain 2 of 2): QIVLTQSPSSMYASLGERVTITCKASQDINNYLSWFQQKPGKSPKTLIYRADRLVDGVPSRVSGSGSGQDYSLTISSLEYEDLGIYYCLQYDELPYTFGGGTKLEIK
monoclonal antibody 7C11 (anti-Bla g 2), sequence (chain, as listed by the source, chain 2 of 2, other chains not shown): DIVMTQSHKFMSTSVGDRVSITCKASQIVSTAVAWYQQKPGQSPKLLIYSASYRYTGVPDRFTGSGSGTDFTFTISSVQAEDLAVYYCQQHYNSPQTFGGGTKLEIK

B1: recombinant Bla g 2-N93Q R83A (protein)
chain: VPLYKLVHVFINTQYAGITKIGNQNFLTVFDSTSCNVVVASQECVGGACVCPNLQKYEKLKPKYISDGNVQVKFFDTGSAVGAGIEDSLTISQLTTSQQDIVLADELSQEVCILSADVVVGIAAPGCPNALKGKTVLENFVEENLIAPVFSIHHARFQDGEHFGEIIFGGSDWKYVDGEFTYVPLVGDDSWKFRLDGVKIGDTTVAPAGTQAIIDTSKAIIVGPKAYVNPINEAIGCVVEKTTTRRICKLDCSKIPSLPDVTFVINGRNFNISSQYYIQQNGNLCYSGFQPCGHSDHFFIGDFFVDHYYSEFNWENKTMGFGRSVESV
- response (Absorbance (405 nm)) [1, 5]: 1.5
- other: Biotinylated mAb 7C11 bound to Bla g 2 (%) [2, 6]: 82%
- other: Biotinylated mAb 7C11 bound to Bla g 2 (%) [2, 7]: 13%

B6: recombinant Bla g 2-N93Q K132A (protein)
chain: B1 chain with A83R, K132A
- response (Absorbance (405 nm)) [1, 5]: 0.12
- response (Absorbance (405 nm)) ([1]; allergen concentration about 400 ng/ml (highest point of the series), parent: est. 1.8): 0.15
- other: Biotinylated mAb 7C11 bound to Bla g 2 (%) [2, 6]: 100%
- other: Biotinylated mAb 7C11 bound to Bla g 2 (%) [2, 7]: 100%
- other: Biotinylated mAb 7C11 bound to Bla g 2 (%) [2, 14]: 99%
- other: Biotinylated mAb 7C11 bound to Bla g 2 (%) [2, 15]: 70%

B7: recombinant Bla g 2-N93Q E233R; I199W (protein)
chain: B1 chain with A83R, I200W, E233R
- response (Absorbance (405 nm)) [3, 11]: 0.14
- response (Absorbance (405 nm)) [3, 16]: 0.27
- other: Biotinylated mAb 4C3 bound to Bla g 2 (%) [4, 12]: 100%
- other: Biotinylated mAb 4C3 bound to Bla g 2 (%) [4, 13]: 100%
- other: Biotinylated mAb 4C3 bound to Bla g 2 (%) [4, 17]: 69%
- other: Biotinylated mAb 4C3 bound to Bla g 2 (%) [4, 18]: 22%

B9: recombinant Bla g 2-N268Q E233R (protein)
chain: B1 chain with A83R, Q93N, E233R, N271Q
- response (Absorbance (405 nm)) [3, 19]: 1.2

B10: recombinant Bla g 2-N93Q E233A (protein)
chain: B1 chain with A83R, E233A
- response (Absorbance (405 nm)) [3, 11]: 1
- other: Biotinylated mAb 4C3 bound to Bla g 2 (%) [4, 13]: 58%
- other: Biotinylated mAb 4C3 bound to Bla g 2 (%) [4, 17]: 15%

B12: recombinant Bla g 2-N93Q K65A (protein)
chain: B1 chain with K63A, A83R
- response (Absorbance (405 nm)) [1, 20]: 0.3
- response (Absorbance (405 nm)) ([1]; allergen concentration about 4000 ng/ml (highest point of the series)): 1.2
- other: Biotinylated mAb 7C11 bound to Bla g 2 (%) [2, 6]: 91%
- other: Biotinylated mAb 7C11 bound to Bla g 2 (%) [2, 7]: 47%
- other: Biotinylated mAb 7C11 bound to Bla g 2 (%) [2, 14]: 11%

B14: recombinant Bla g 2-N93Q K251A (protein)
chain: B1 chain with A83R, K254A
- response (Absorbance (405 nm)) [3, 11]: 0.14
- response (Absorbance (405 nm)) [3, 16]: 0.27
- other: Biotinylated mAb 4C3 bound to Bla g 2 (%) [4, 12]: 100%
- other: Biotinylated mAb 4C3 bound to Bla g 2 (%) [4, 13]: 100%
- other: Biotinylated mAb 4C3 bound to Bla g 2 (%) [4, 17]: 93%
- other: Biotinylated mAb 4C3 bound to Bla g 2 (%) [4, 18]: 60%

Further lines, results first:

- response (Absorbance (405 nm)) [3, 8]: 0.48
- other: Biotinylated mAb 4C3 bound to Bla g 2 (%) [4, 9]: 88%
- other: Biotinylated mAb 4C3 bound to Bla g 2 (%) [4, 10]: 46%
- other: Biotinylated mAb 4C3 bound to Bla g 2 (%) ([4]; competitor concentration 10 µg/ml): 7%
B2: natural Bla g 2 N268Q (protein)
chain: B1 chain with A83R, Q93N, N271Q

- response (Absorbance (405 nm)) [1, 5]: 1.5
- other: Biotinylated mAb 7C11 bound to Bla g 2 (%) [2, 6]: 82%
- other: Biotinylated mAb 7C11 bound to Bla g 2 (%) [2, 7]: 18%
B3: recombinant Bla g 2-N93Q E86A (protein)
chain: B1 chain with A83R, E86A

- response (Absorbance (405 nm)) [3, 11]: 1.7
- other: Biotinylated mAb 4C3 bound to Bla g 2 (%) [4, 12]: 72%
B4: recombinant Bla g 2-N93Q E233R (protein)
chain: B1 chain with A83R, E233R

- response (Absorbance (405 nm)) [3, 11]: 1.8
- other: Biotinylated mAb 4C3 bound to Bla g 2 (%) [4, 12]: 48%
- other: Biotinylated mAb 4C3 bound to Bla g 2 (%) [4, 13]: 7%
B5: recombinant Bla g 2-N93Q D248A (protein)
chain: B1 chain with A83R, D251A

- response (Absorbance (405 nm)) [3, 8]: 1.5
- other: Biotinylated mAb 4C3 bound to Bla g 2 (%) [4, 9]: 82%
- other: Biotinylated mAb 4C3 bound to Bla g 2 (%) [4, 10]: 32%
B8: natural Bla g 2 N93Q (protein)
chain: B1 chain with A83R

- response (Absorbance (405 nm)) [1, 20]: 0.48
- response (Absorbance (405 nm)) ([1]; allergen concentration about 4000 ng/ml (highest point of the series; curve at plateau)): 0.73
- other: Biotinylated mAb 7C11 bound to Bla g 2 (%) [2, 6]: 98%
- other: Biotinylated mAb 7C11 bound to Bla g 2 (%) [2, 7]: 82%
- other: Biotinylated mAb 7C11 bound to Bla g 2 (%) [2, 15]: 5%
B11: recombinant Bla g 2-N93Q D68aA (protein)
chain: B1 chain with D67A, A83R

- response (Absorbance (405 nm)) [3, 19]: 0.2
- response (Absorbance (405 nm)) ([3]; allergen concentration about 400 ng/ml (highest point of the series), parent: est. 1.1): 0.4
- other: Biotinylated mAb 4C3 bound to Bla g 2 (%) ([4]; competitor concentration 0.1 µg/ml, parent: est. 88): 93%
- other: Biotinylated mAb 4C3 bound to Bla g 2 (%) ([4]; competitor concentration 1 µg/ml, parent: est. 46): 82%
- other: Biotinylated mAb 4C3 bound to Bla g 2 (%) ([4]; competitor concentration 10 µg/ml, parent: est. 7): 78%
- other: Biotinylated mAb 4C3 bound to Bla g 2 (%) [4, 18]: 62%
B13: recombinant Bla g 2-N268Q E233R; I199W (protein)
chain: B1 chain with A83R, Q93N, I200W, E233R, N271Q
